For orientation: Kd means the free concentration of one partner at which half of the binding sites on the other are occupied at equilibrium, for simple one-to-one binding.

The target in data set [1] is KorB of plasmid RA3 fused to a CyaA fragment (BACTH) (plasmid RA3 (IncU), isolated from Aeromonas spp.). Description: two-hybrid; bacterial adenylate cyclase two-hybrid (BACTH) in E. coli BTH101 cyaA; CyaA T18 and T25 fusions; MacConkey plates with 1% maltose and β-galactosidase assays in liquid cultures.
The test system of data set [2] is His6-KfrA WT (plasmid RA3 (IncU; Aeromonas hydrophila in Fig S1/S3)). Description: EMSA. The conditions noted are these: EMSA: 50 mM Tris-HCl pH 8.0, 10 mM MgCl2, 50 mM NaCl, 37 C, 30 min, 10 nM EcoRI-NdeI-digested plasmid DNA (vector fragment as internal competitor), 20 ul …. (In general: A gel shift assay detects complexes by their altered migration in electrophoresis.)

The test system of data set [3] is His6-KfrA178-355 (plasmid RA3 (IncU; Aeromonas hydrophila in Fig S1/S3)). As to the kind of experiment: EMSA. As to conditions: EMSA: 50 mM Tris-HCl pH 8.0, 10 mM MgCl2, 50 mM NaCl, 37 C, 30 min, 10 nM EcoRI-NdeI-digested plasmid DNA (vector fragment as internal competitor), 20 ul ….
In data set [4] the target is His6-KfrCRA3 labelled with RED-Tris-NTA (plasmid RA3 (IncU), isolated from Aeromonas spp.). As to the kind of experiment: MST; labelled His6-KfrC constant at 50 nM, KfrA from 500 nM to 0.0153 nM; 50 mM KPi pH 7.4, 300 mM NaCl, 0.05% Tween 20; measured at 37°C on Monolith NT.115; four independent experiments.
In data set [5] the target is IncC of plasmid RA3 fused to CyaA T25 (BACTH) (plasmid RA3 (IncU), isolated from Aeromonas spp.). As to the kind of experiment: two-hybrid; bacterial adenylate cyclase two-hybrid (BACTH) in E. coli BTH101 cyaA; CyaA T18 and T25 fusions; MacConkey plates with 1% maltose and β-galactosidase assays in liquid cultures.
Data set [6] deals with KfrA of plasmid RA3, intact, fused to a CyaA fragment (BACTH) (plasmid RA3 (IncU), isolated from Aeromonas spp.). Described as above.

Values joined by “and” are separate entries in the source; they are usually repeats but may differ in a detail not shown here. Equal values may be shown once.

“KfrC of plasmid RA3, intact, fused to a CyaA fragment (BACTH) (natural protein)”: the β-galactosidase activity in data set [1] is 1010 U.

Take “WT OK (kfrAp), EcoRI-NdeI fragment of pESB2.68”: the K half in data set [2] (OK variant series) is 240 nM; in data set [2] (preparation used with Ala variants), 180 nM; in data set [2] (preparation used with deletion variants, preparations ranged 0.18-0.32 uM), 320 nM; in data set [3], 1700 nM.

Consider “KfrARA3 with the His6 tag removed (natural protein)”, for which, in data set [4], the equilibrium dissociation constant (Kd) was found to be 0.054 µM.

In data set [3], pUC18 vector control fragment registered a K half of 1000 nM.

For the substance “KfrA of plasmid RA3, intact, fused to a CyaA fragment (BACTH) (natural protein)”, the β-galactosidase activity is 136 U in data set [5]; 4880 U and 5170 U in data set [6]; 1970 U in data set [1].
